Laboratory results: paper PMC2861611 (Molecular Biology of the Cell, 2010)

Biological target: T1, GST-PDZK1 tail (human, UniProt Q5T2W1 459-519)
T1 sequence (looked up): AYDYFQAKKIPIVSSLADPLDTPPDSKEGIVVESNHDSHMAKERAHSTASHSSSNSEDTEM
Experiment: pull-down

B1: EBP50 (1-354) (domain or fragment, UniProt O14745 1-354, looked up)
chain: MSADAAAGAPLPRLCCLEKGPNGYGFHLHGEKGKLGQYIRLVEPGSPAEKAGLLAGDRLVEVNGENVEKETHQQVVSRIRAALNAVRLLVVDPETDEQLQKLGVQVREELLRAQEAPGQAEPPAAAEVQGAGNENEPREADKSHPEQRELRPRLCTMKKGPSGYGFNLHSDKSKPGQFIRSVDPDSPAEASGLRAQDRIVEVNGVCMEGKQHGDVVSAIRAGGDETKLLVVDRETDEFFKKCRVIPSQEHLNGPLPVPFTNGEIQKENSREALAEAALESPRPALVRSASSDTSEELNSQDSPPKQDSTAPSSTSSSDPILDFNISLAMAKERAHQKRSSKRAPQMDWSKKNEL
- amount precipitated relative to full-length EBP50 (1-358): 2.4 times
